Measured values published in patent US20040048242.

Target: T1, GST-pRb (non-acetylated), P06400
T1 chain: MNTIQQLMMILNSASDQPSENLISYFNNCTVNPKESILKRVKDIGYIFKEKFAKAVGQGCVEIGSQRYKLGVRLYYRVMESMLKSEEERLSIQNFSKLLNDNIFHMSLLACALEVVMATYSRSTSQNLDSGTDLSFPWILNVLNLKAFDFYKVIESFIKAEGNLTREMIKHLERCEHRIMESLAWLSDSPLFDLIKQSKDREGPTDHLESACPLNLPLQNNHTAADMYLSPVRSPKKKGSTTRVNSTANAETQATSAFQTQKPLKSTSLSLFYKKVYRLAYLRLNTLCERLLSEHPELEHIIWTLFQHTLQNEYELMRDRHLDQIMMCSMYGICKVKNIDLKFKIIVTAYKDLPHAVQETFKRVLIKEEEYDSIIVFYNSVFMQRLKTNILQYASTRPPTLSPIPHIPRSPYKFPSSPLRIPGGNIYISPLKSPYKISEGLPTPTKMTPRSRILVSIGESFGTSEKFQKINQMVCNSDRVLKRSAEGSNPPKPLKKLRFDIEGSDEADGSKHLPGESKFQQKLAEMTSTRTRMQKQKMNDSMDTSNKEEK

B1: his-tagged p300 1195-1673 (protein)
chain: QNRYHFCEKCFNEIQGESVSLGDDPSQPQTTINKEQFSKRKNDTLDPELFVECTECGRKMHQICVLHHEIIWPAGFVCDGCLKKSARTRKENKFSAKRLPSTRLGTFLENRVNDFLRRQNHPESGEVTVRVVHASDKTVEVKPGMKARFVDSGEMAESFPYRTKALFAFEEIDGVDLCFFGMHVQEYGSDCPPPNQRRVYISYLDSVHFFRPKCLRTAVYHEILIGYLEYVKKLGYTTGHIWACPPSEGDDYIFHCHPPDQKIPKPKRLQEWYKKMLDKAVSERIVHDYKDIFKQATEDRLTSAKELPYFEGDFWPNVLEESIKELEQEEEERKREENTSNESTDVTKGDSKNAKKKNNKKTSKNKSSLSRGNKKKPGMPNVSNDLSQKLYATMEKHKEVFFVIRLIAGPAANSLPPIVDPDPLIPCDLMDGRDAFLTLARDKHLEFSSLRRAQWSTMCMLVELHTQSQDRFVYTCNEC
in vitro acetylation of GST-pRb with 14C acetyl CoA: GST-pRb could be acetylated by p300
